Molecular target: T1, full-length His-tagged SARS-CoV-2 spike protein (wild-type) (SARS-CoV-2, wild-type (Wuhan-Hu-1), UniProt P0DTC2)
T1 construct: also called full-length S-protein; full-length Spike protein; source: CHO Express cells, cell medium purified by Ni-IMAC; not shown: His-tag, C-terminal, kept
Assay: BLI
Details: both partners purified

B1: Nb20 nanobody (VHH)
VHH: QVQLVESGGGLVQAGGSLRLSCAVSGAGAHRVGWFRRAPGKEREFVAAIGASGGMTNYLDSVKGRFTISRDNAKNTIYLQMNSLKPQDTAVYYCAARDIETAEYIYWGQGTQVTVSS
notes: not shown: ecotin, N-terminal, cleaved; His-tag, N-terminal, cleaved
  Kd: ~1 nM

Reference: publication PMC10045489 (Bioengineering, 2023)
